Among the data in a protein production outcome set (Wang et al. 2014) are protein production values, retold here.

The series in a line: label from the status in PepcDB records.
As for “MALTDNTRGALFMALAMASFTANDALTKSVTPYINTGQIMFVRGVMTVVLIYIAARHFGALRPLKTLLRPIIILRCLCEVTAAVLYLTALGLIEFSNASAILQSLPLVVTLGAALFLREPVGWRRWVAIIVGFIGVLVIIRPGPEGFTPGALLVVASLAVTAARDLLTRKMYADVPSLAITVITAFVNMAVGGLLIVPFGGWQPMNFTIVSHLAGSAILVLVGYQAIILSMRTGEISFVAPFRYTGLLWGFMIGVFFFNEKIDSYTIIGAMIVIGSGLYTFYRESLRKRSQMAKRAAATPTAATTVRPASVTKATVTEEAGE”, the protein production result is reported as “failed”. Turning to “MALVLTFLGKGGVGRTTVAIAAAKKLAQAGQRVLVLGQDPSLAWQWGITLSETAQGVEANVDGLLLSSTHLLERGWEKLKEVEAQYLRSPALKNIYGEELGVLPGMDEVLVLNALREYELSGRYDVLIYDGPGNLSTLRMLGIPEIASWYWRRFQKVLADSEVVQTLSPFVQPVASAVLSVNWSPDQMLNHPDGPQNLLQQGKAAIADPNRFAAYLVTSTDSLAQKAAQSYWGGAQQVGVTVKGVIQTPLGNGSLDANLFDPLLIAALPSYNQGNWQPLMDALPNPQAMGSAPRPLEIDVNARQVKVFLPGFDKRQVKLTQSGPELTIEAGDQRRNIDLPGNLRGKGVTGAKFQGGYLIVSFLEHHHHHH”, the protein production result is recorded as “failed”. For “MAMAVSGAVLSGLGSSFLTGGKRGATALASGVGTGAQRVGRKTLIVAAAAAQPKKSWIPAVKGGGNFLDPEWLDGSLPGDFGFDPLGLGKDPAFLKWYREAELIHGRWAMAAVLGIFVGQAWSGVAWFEAGAQPDAIAPFSFGSLLGTQLLLMGWVESKRWVDFFNPDSQSVEWATPWSKTAENFANYTGDQGYPGGRFFDPLGLAGKNRDGVYEPDFEKLERLKLAEIKHSRLAMVAMLIFYFEAGQGKTPLGALGL” the value was “failed”. For “MAMSGTYVTDVPLKGSAEKHYKRWRSENHLVPEAIGHLIQGVTVHDGDWDSHGTIKIWNYTRDGKEEVLKERIEMDDENMAVTINGLDGHVMEVLKVYVTTLHFIPESKDGCVCKITMVWEKRTEDSPEPIEFMKFVEQMIAHMDDHILQNQE” the value was “failed”; for “MAMSHLFLSSSPQSSLALRLHSTTQFTLSYSKNNKDCSFQSANEAKVSKRSLLCRAIHMESGHSGEQPKKLNFDNLLRRTKHVWDNSPQPVKEFPWNRAFGNFIQLVLDLAISVVKFLFVPILAVSSISEMSYCAHERKLALVPFPLVIGMVVAGVLQETALKISPRLKEAEVPWHLIAMMMFFTLIKLPGPYYPYWGRLLVPHFANGVLLRALWSMFFWYKKTRNTSGNPLQNHSLETE”, “failed”. For “MAMYIRVKRMKTTYFIQCDPTETVLDVKQKLFALIEQPVNNQRLVLMSTEEVLEDSKSLADQKVENDAVVALTLKKD” the value was “not failed”; for “MANAENNSVSTRSSELYREISQMDDEIMKLVEQINQPIGRPDFGAIEEARKKLTDKRMKLEELSKRMKEVIKEMEETPKR”, “failed”.

For “MANEGGQDAGDEYFADLDYIEVAEQLKEGYESEVDHSDPDAEEDNGGPDAEDDDDFRPNYHYQRKIKRSSRSGSTQNSSTQSSELDSQERAVINFNPNADLDET”, the protein production entry is “failed”.

As to “MANETPKRRILVIRIDFLGDMLCTTAFLGALKRRWPDAELHVVANRYNASALDGNPDVHAVHTYVYSRQCERNDRPGRMRAFFDRLRLVRRLRRLRFDLVVVPNGGMHRSSIQLARQLGVKDCRWHDADSEFDDRKPEHVASRPMCHEALSGFRLVPELGRNDLDGLALSVHPDRALLDTWYRLLGARAKPRVGLFVSNKATERRWPADRWCDLGRRLAPFADVIVFRDPAVSAGAGADGDAWRDVNARHVAPSSVAELVAAASLLDAIVSADSAPVHLASALGVPVAALFEDRPEKYRRWHPLGVPHMILRAGATVDAIGVDAVERAVLHLLEKAGQADDATGGALPLPDVTLVVPAVGAIVS”, the protein production result is on record as “failed”.
